This is an account of results in patent US20170182124A1, “FGF21 Derivatives and Uses Thereof” (Novo Nordisk A/S, priority 2014, published 2017).

Like-named read-outs stand apart in the source and are kept apart here.

This assay concerns the target FGF receptor/BKL complex. Kind of assay: FGF receptor potency in an Erk phosphorylation assay in HEK293 overexpressing human BKL. Conditions: for EC50: HEK293/BKL cells, pERK after 12 minutes. It counts as cell-based. On the procedure:
In order to test the binding of the FGF21 derivatives to albumin, the assay was performed in the absence of serum albumin as well as in the presence of human serum albumin (HSA) (0.1% final assay concentration). An increase in EC50 value (decrease in potency) in the presence of serum albumin for FGF21 derivatives would indicate binding to serum albumin and represents a method to predict a protracted pharmacokinetic profile of the test substance in animal models. MetFGF21 (SEQ ID NO:2) is included for reference.
HEK293 cells endogenously express several FGF receptors, including FGFR1c, FGFR3c and FGFR4. These cells are unresponsive to FGF21 until transfected with the co-receptor beta-klotho (BKL). Activation of the FGF receptor/BKL complex leads to activation of the MAPK/ERK signalling pathway and phosphorylation of ERK. The level of phosphorylated ERK (pERK) at a given time point increases with increasing concentrations of FGF21. As described below the level of pERK is measured after 12 minutes of stimulation with a range of FGF21 analogue concentrations.
The HEK293/beta-klotho cells are seeded with 30.000 cells/well in 96 well plates in DMEM (BioWhittaker #BE12-604F/U1), supplemented with 10% FCS (Gibco #16140-071), 1% penicillin/streptomycin (Gibco #15140), 100 µg/ml Hygromycin B, (Calbiochem, # 400052). Two days later and 2 hours before addition of compound the cell medium is exchanged with 100 ∞l basal medium (DMEM (BioWhittaker #BE12-604F/U1)). The FGF21 analogues are diluted in assay medium (DMEM (BioWhittaker #BE12-604F/U1) supplemented with 0.02% Tween20), warmed to 37° C., added to the cells (100 μl) and incubated at 37° C. for 12 minutes. The FGF21 derivatives were also tested in the presence of 0.1% HSA (Sigma—A1887). All medium is quickly removed and 50 μl lysis buffer is added pr. well. The plate is shaken for 5 minutes and the lysate is ready for measurement of pERK. pERK is measured in 384 well plates with the AlphaScreen SureFire kit (PerkinElmer #TGRES10K). This kit is based on ERK and pERK specific antibodies coupled to donor and acceptor beads. The presence of pERK will bring acceptor and donor beads in close proximity and a signal is generated that is read on EnVision. The data are analysed using GraphPad Prism and the potency of the FGF21 proteins is described as absolute EC50 value.

The mark [1] stands for this setting: presence of 0.1% HSA, read-out: EC50 (0.1% HSA).

Sequence of FGF receptor/BKL complex (Q86Z14 whole entry, one chain of several): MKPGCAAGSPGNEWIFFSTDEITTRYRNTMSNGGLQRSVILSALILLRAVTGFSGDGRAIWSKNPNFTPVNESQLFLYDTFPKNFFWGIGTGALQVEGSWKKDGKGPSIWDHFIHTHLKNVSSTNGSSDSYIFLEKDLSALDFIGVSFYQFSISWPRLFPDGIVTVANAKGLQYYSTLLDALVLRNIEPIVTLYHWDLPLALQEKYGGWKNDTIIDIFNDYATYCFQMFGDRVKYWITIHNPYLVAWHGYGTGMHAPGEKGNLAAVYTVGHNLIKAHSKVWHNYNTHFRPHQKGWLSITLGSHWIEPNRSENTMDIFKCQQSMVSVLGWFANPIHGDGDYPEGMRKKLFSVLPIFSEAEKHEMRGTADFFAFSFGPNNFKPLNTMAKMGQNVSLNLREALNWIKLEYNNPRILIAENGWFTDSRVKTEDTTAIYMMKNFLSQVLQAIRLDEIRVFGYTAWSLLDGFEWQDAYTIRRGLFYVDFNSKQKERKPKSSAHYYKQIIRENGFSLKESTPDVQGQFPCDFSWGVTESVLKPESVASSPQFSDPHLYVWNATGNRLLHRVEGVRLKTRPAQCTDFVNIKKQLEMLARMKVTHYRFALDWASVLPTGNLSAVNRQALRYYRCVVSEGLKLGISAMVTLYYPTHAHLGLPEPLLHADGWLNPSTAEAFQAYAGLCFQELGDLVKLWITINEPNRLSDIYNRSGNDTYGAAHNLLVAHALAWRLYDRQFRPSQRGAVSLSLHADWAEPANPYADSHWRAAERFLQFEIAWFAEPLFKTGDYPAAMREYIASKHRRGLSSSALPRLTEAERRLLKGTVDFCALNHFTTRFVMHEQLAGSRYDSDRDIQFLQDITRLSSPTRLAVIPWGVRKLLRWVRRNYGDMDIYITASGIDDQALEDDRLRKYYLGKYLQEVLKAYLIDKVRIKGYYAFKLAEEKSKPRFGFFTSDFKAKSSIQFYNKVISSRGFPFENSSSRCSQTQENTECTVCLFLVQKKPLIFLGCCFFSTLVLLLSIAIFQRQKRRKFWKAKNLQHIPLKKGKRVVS

The EC50 is the concentration at which the effect is half-maximal. Take “S{Beta-168}-[2-[2-[[2-[2-[2-[[2-[2-[2-[[(4S)-4-carboxy-4-(13-carboxytridecanoyl-amino)butanoyl]amino]ethoxy]ethoxy]acetyl]amino]ethoxy]ethoxy]acetyl]amino]-ethylamino]-2-oxoethyl]-Ala[Gln121,Cys168]FGF21 [Compound 34]”: the EC50 was found to be 667 nM (absence of HSA, read-out: EC50) and 4260 nM under setting [1].

B1: Ala[Gln121, Leu168, Cys175]FGF21 (protein)
chain: HPIPDSSPLLQFGGQVRQRYLYTDDAQQTEAHLEIREDGTVGGAADQSPESLLQLKALKPGVIQILGVKTSRFLCQRPDGALYGSLHFDPEACSFRELLLEDGYNVYQSEAHGLPLHLPGQKSPHRDPAPRGPARFLPLPGLPPALPEPPGILAPQPPDVGSSDPLSLVGPSQGCSPSYAS
notes: FGF21 analogue
For B1, the EC50 (absence of HSA, read-out: EC50) is 11 nM.

B2: S{Beta-173}-[2-[2-[[2-[2-[2-[[2-[2-[2-[[(4S)-4-carboxy-4-(15-carboxypentadecanoyl-amino)butanoyl]amino]ethoxy]ethoxy]acetyl]amino]ethoxy]ethoxy]acetyl]amino]-ethylamino]-2-oxoethyl]-Ala[Gln121,Leu168, … (protein)
chain: HPIPDSSPLLQFGGQVRQRYLYTDDAQQTEAHLEIREDGTVGGAADQSPESLLQLKALKPGVIQILGVKTSRFLCQRPDGALYGSLHFDPEACSFRELLLEDGYNVYQSEAHGLPLHLPGQKSPHRDPAPRGPARFLPLPGLPPALPEPPGILAPQPPDVGSSDPLSLVGPSCGRSPSYAS
For the molecule B2, the EC50 reads like this: (absence of HSA, read-out: EC50) 3 nM; under setting [1], 4 nM.

B3: S{Beta-174}-[2-[2-[[2-[2-[2-[[2-[2-[2-[[(4S)-4-carboxy-4-(13-carboxytridecanoyl-amino)butanoyl]amino]ethoxy]ethoxy]acetyl]amino]ethoxy]ethoxy]acetyl]amino]-ethylamino]-2-oxoethyl]-Ala[Gln121,Leu168,Cy … (protein)
chain: HPIPDSSPLLQFGGQVRQRYLYTDDAQQTEAHLEIREDGTVGGAADQSPESLLQLKALKPGVIQILGVKTSRFLCQRPDGALYGSLHFDPEACSFRELLLEDGYNVYQSEAHGLPLHLPGQKSPHRDPAPRGPARFLPLPGLPPALPEPPGILAPQPPDVGSSDPLSLVGPSQCRSPSYAS
Regarding B3, the EC50 amounted to 4 nM (absence of HSA, read-out: EC50) and 4 nM under setting [1].

B4: 18-[[(1S)-4-[2-[2-[2-[2-[2-[2-(2-acetamidoethylamino)-2-oxo-ethoxy]ethoxy]ethylamino]-2-oxo-ethoxy]ethoxy]ethylamino]-1-carboxy-4-oxo-butyl]amino]-18-oxo-octadecanoic … (protein)
chain: HPIPDSSPLLQFGGQVRQRYLYTDDAQQTEAHLEIREDGTVGGAADQSPESLLQLKALKPGVIQILGVKTSRFLCQRPDGALYGSLHFDPEACSFRELLLEDGYNVYQSEAHGLPLHLPGQKSPHRDPAPRGPARFLPLPGLPPALPEPPGILAPQPPDVGSSDPLSLVCPSQGRSPSYAS
As to B4, the EC50 reads like this: (absence of HSA, read-out: EC50) 1 nM; under setting [1], 20 nM.

B5: 18-[[(1S)-4-[2-[2-[2-[2-[2-[2-(2-acetamidoethylamino)-2-oxo-ethoxy]ethoxy]ethylamino]-2-oxo-ethoxy]ethoxy]ethylamino]-1-carboxy-4-oxo-butyl]amino]-18-oxo-octadecanoic … (protein)
chain: HPIPDSSPLLQFGGQVRQRYLYTDDAQQTEAHLEIREDGTVGGAADQSPESLLQLKALKPGVIQILGVKTSRFLCQRPDGALYGSLHFDPEACSFRELLLEDGYNVYQSEAHGLPLHLPGQKSPHRDPAPRGPARFLPLPGLPPALPEPPGILAPQPPDVGSSDPLSLVGPSQCRSPSYAS
For the molecule B5, the EC50 worked out at 1 nM (absence of HSA, read-out: EC50) and 1 nM under setting [1].

B6: Ala[Gln121, Cys168]FGF21 (protein)
chain: AHPIPDSSPLLQFGGQVRQRYLYTDDAQQTEAHLEIREDGTVGGAADQSPESLLQLKALKPGVIQILGVKTSRFLCQRPDGALYGSLHFDPEACSFRELLLEDGYNVYQSEAHGLPLHLPGQKSPHRDPAPRGPARFLPLPGLPPALPEPPGILAPQPPDVGSSDPLSCVGPSQGRSPSYAS
modifications: N-terminal Ala
On to B6, for which the EC50 (absence of HSA, read-out: EC50) was 492 nM. For the same molecule, the “potency in HEK293/BKL cells compared with MetFGF21 or corresponding analogue (in words)” value (absence of HSA) is on record as “decreased potency”.

B7: Ala[Gln121, Leu168, Cys173]FGF21 (protein)
chain: AHPIPDSSPLLQFGGQVRQRYLYTDDAQQTEAHLEIREDGTVGGAADQSPESLLQLKALKPGVIQILGVKTSRFLCQRPDGALYGSLHFDPEACSFRELLLEDGYNVYQSEAHGLPLHLPGQKSPHRDPAPRGPARFLPLPGLPPALPEPPGILAPQPPDVGSSDPLSLVGPSQCRSPSYAS
modifications: N-terminal Ala
notes: FGF21 analogue
For B7, the EC50 (absence of HSA, read-out: EC50) is 4 nM.

B8: Ala[Gln121, Leu168, Cys174]FGF21 (protein)
chain: AHPIPDSSPLLQFGGQVRQRYLYTDDAQQTEAHLEIREDGTVGGAADQSPESLLQLKALKPGVIQILGVKTSRFLCQRPDGALYGSLHFDPEACSFRELLLEDGYNVYQSEAHGLPLHLPGQKSPHRDPAPRGPARFLPLPGLPPALPEPPGILAPQPPDVGSSDPLSLVGPSQGCSPSYAS
modifications: N-terminal Ala
notes: FGF21 analogue
Take B8: the EC50 (absence of HSA, read-out: EC50) came to 5 nM.

B9: Ala[Gln121, Cys167, Leu168,]FGF21 (protein)
chain: AHPIPDSSPLLQFGGQVRQRYLYTDDAQQTEAHLEIREDGTVGGAADQSPESLLQLKALKPGVIQILGVKTSRFLCQRPDGALYGSLHFDPEACSFRELLLEDGYNVYQSEAHGLPLHLPGQKSPHRDPAPRGPARFLPLPGLPPALPEPPGILAPQPPDVGSSDPLCLVGPSQGRSPSYAS
modifications: N-terminal Ala
As to B9, the EC50 (absence of HSA, read-out: EC50) came out at 4 nM.

B10: Ala[Gln121, Leu168, Cys170]FGF21 (protein)
chain: AHPIPDSSPLLQFGGQVRQRYLYTDDAQQTEAHLEIREDGTVGGAADQSPESLLQLKALKPGVIQILGVKTSRFLCQRPDGALYGSLHFDPEACSFRELLLEDGYNVYQSEAHGLPLHLPGQKSPHRDPAPRGPARFLPLPGLPPALPEPPGILAPQPPDVGSSDPLSLVCPSQGRSPSYAS
modifications: N-terminal Ala
For B10, the EC50 (absence of HSA, read-out: EC50) came to 7 nM.

B11: Ala[Gln121, Leu168, Cys172]FGF21 (protein)
chain: AHPIPDSSPLLQFGGQVRQRYLYTDDAQQTEAHLEIREDGTVGGAADQSPESLLQLKALKPGVIQILGVKTSRFLCQRPDGALYGSLHFDPEACSFRELLLEDGYNVYQSEAHGLPLHLPGQKSPHRDPAPRGPARFLPLPGLPPALPEPPGILAPQPPDVGSSDPLSLVGPSCGRSPSYAS
modifications: N-terminal Ala
notes: FGF21 analogue
Turning to B11, where the note is “absence of HSA, read-out: EC50”, the EC50 was 5 nM.

B12: Ala[Gln121, Leu168, Cys171]FGF21 (protein)
chain: AHPIPDSSPLLQFGGQVRQRYLYTDDAQQTEAHLEIREDGTVGGAADQSPESLLQLKALKPGVIQILGVKTSRFLCQRPDGALYGSLHFDPEACSFRELLLEDGYNVYQSEAHGLPLHLPGQKSPHRDPAPRGPARFLPLPGLPPALPEPPGILAPQPPDVGSSDPLSLVGPCQGRSPSYAS
modifications: N-terminal Ala
notes: FGF21 analogue
Turning to B12, under “absence of HSA, read-out: EC50”, the EC50 came to 8 nM.

B13: Ala[Gln121, Leu168, Cys177]FGF21 (protein)
chain: AHPIPDSSPLLQFGGQVRQRYLYTDDAQQTEAHLEIREDGTVGGAADQSPESLLQLKALKPGVIQILGVKTSRFLCQRPDGALYGSLHFDPEACSFRELLLEDGYNVYQSEAHGLPLHLPGQKSPHRDPAPRGPARFLPLPGLPPALPEPPGILAPQPPDVGSSDPLSLVGPSQGRSCSYAS
modifications: N-terminal Ala
With B13, where the note is “absence of HSA, read-out: EC50”, the EC50 came out at 416 nM.

B14: Ala[Gln121, Leu168, Cys169]FGF21 (protein)
chain: AHPIPDSSPLLQFGGQVRQRYLYTDDAQQTEAHLEIREDGTVGGAADQSPESLLQLKALKPGVIQILGVKTSRFLCQRPDGALYGSLHFDPEACSFRELLLEDGYNVYQSEAHGLPLHLPGQKSPHRDPAPRGPARFLPLPGLPPALPEPPGILAPQPPDVGSSDPLSLCGPSQGRSPSYAS
modifications: N-terminal Ala
Consider B14, for which, for the setting “absence of HSA, read-out: EC50”, the EC50 worked out at 22 nM.
